Assay results reported in article PMC3659266 (Structure (London, England : 1993), 2013).

Target: Human full-length eIF4AI (human, UniProt P60842 1-406)
Assay: ITC

Sequence of Human full-length eIF4AI (P60842 whole entry): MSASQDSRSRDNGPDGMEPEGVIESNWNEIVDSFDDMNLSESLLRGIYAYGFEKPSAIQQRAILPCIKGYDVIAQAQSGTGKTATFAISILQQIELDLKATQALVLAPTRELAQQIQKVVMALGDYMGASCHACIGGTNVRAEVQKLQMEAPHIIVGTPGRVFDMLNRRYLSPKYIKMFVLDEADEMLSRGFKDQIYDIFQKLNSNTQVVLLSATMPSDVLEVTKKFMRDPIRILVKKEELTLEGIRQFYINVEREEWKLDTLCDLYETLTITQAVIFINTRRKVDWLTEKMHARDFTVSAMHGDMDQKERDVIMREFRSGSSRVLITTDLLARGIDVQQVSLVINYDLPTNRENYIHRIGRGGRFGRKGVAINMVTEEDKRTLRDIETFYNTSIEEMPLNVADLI

B1: Middle domain of human eIF4GI (MIF4G, residues 732-1003) (domain or fragment, UniProt Q04637 732-1003, looked up)
chain: KAWKPSSKRTAADKDRGEEDADGSKTQDLFRRVRSILNKLTPQMFQQLMKQVTQLAIDTEERLKGVIDLIFEKAISEPNFSVAYANMCRCLMALKVPTTEKPTVTVNFRKLLLNRCQKEFEKDKDDDEVFEKKQKEMDEAATAEERGRLKEELEEARDIARRRSLGNIKFIGELFKLKMLTEAIMHDCVVKLLKNHDEESLECLCRLLTTIGKDLDFEKAKPRMDQYFNQMEKIIKEKKTSSRIRFMLQDVLDLRGSNWVPRRGDQGPKTID
- Kd: 136 nM
